For 1 sequence, binding results are on record in article PMC2646509.

For this series, the target named is T1, PrfA L140F L140F (Listeria monocytogenes (NF-L1166)) (UniProt P22262).
T1 sequence: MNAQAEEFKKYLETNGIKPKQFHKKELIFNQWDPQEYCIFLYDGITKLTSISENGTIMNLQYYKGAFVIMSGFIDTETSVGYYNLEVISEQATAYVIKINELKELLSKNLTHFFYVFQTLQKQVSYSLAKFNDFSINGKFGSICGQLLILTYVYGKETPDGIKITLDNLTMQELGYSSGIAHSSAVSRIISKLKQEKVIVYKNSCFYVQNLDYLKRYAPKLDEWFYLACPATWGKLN
Put plainly: EMSA. Background: In EMSA bound probe runs differently from free probe, usually more slowly.

Regarding “GATGCTTCTAAAAAAGTTGCTGAAGCTTGGGAAGCAGTTGGGGTTAACTGATTAACAAATGTTAGAGAAAAATTAATTCTCCAAGTGATATTCTTAAAATAATTCATGAATA (double strand) [actA promoter]”, the binding result is “binds”.
